Experiments:
[1] = target: T1, rat CRF binding protein C-terminally fused with a His6 sequence (rat) (UniProt P24388); experiment: SPA competition with 0.1 nM [125I-Tyr0]h/rCRF, His-tagged rCRFBP; 95% CI (0.60-1.3)
T1 sequence: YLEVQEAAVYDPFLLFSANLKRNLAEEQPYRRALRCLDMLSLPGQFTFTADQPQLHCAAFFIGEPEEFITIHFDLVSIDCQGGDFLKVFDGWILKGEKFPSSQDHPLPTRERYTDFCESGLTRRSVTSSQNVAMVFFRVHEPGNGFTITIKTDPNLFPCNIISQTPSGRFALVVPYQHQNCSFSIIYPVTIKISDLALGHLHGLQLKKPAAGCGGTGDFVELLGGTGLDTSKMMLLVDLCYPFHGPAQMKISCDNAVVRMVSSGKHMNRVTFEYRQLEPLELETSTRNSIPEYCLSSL

[2] = target: mouse CRF receptor, type 2β (mouse) (UniProt Q60748)
[3] = target: rat CRF receptor, type 1 (rat) (UniProt P35353); experiment: SPA competition with 0.05 nM [125I-Tyr0]h/rCRF, HEK-293 membranes; 95% CI (0.44-0.79)
[4] = target: T1, rat CRF binding protein C-terminally fused with a His6 sequence (rat); experiment: SPA competition with 0.1 nM [125I-Tyr0]h/rCRF, His-tagged rCRFBP; 95% CI (70-90)
[5] = target: mouse CRF receptor, type 2β (mouse) (UniProt Q60748); experiment: SPA competition with 0.05 nM [125I-Tyr0]Svg, HEK-293 membranes; 95% CI (15-18)
[6] = target: mouse CRF receptor, type 2β (mouse) (UniProt Q60748); experiment: SPA competition with 0.05 nM [125I-Tyr0]Svg, HEK-293 membranes; 95% CI (0.24-1.36)
[7] = target: rat CRF receptor, type 1 (rat) (UniProt P35353)
[8] = target: T1, rat CRF binding protein C-terminally fused with a His6 sequence (rat); experiment: SPA competition with 0.1 nM [125I-Tyr0]h/rCRF, His-tagged rCRFBP; 95% CI (76-104)
[9] = target: mouse CRF receptor, type 2β (mouse) (UniProt Q60748); experiment: SPA competition with 0.05 nM [125I-Tyr0]Svg, HEK-293 membranes; 95% CI (110-300)
[10] = target: rat CRF receptor, type 1 (rat) (UniProt P35353); experiment: SPA competition with 0.05 nM [125I-Tyr0]h/rCRF, HEK-293 membranes; 95% CI (0.65-1.4)
Target sequence in this assay (P35353 24-415): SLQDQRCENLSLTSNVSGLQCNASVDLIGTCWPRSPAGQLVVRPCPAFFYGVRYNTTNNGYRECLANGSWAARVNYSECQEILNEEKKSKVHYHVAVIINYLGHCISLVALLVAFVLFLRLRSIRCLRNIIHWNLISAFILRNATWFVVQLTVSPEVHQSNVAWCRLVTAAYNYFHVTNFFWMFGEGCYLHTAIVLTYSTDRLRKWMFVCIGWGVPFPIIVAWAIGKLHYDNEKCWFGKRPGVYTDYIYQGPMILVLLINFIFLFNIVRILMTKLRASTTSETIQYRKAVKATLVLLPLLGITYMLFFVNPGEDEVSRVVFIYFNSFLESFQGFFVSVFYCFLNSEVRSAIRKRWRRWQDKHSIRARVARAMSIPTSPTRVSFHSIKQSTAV

[11] = target: T1, rat CRF binding protein C-terminally fused with a His6 sequence (rat); experiment: SPA competition with 0.1 nM [125I-Tyr0]h/rCRF, His-tagged rCRFBP; 95% CI (0.9-1.0)

Chain of ovine corticotropin-releasing factor (ligand) (P01142 148-188): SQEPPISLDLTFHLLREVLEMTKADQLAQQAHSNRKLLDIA

Row | Rel. intrinsic activity [%] [2] | Rel. potency of antagonist [%] [2] | Rel. intrinsic activity [%] [7] | Rel. potency of antagonist [%] [7] | Substance | also measured
1 |  |  |  |  | [Ala^21]Svg (from UniProt P01144) (peptide) | IC50 [1]: 0.94 nM
2 | 1% | 97% |  |  | [Glu^11,16]Ast (peptide) | 
3 |  |  |  |  | [Glu^22]h/rCRF (from UniProt P06850) (peptide) | IC50 [3]: 0.61 nM; IC50 [4]: 80 nM; IC50 [5]: 16 nM
4 | 1% | 99% | 6.5% | 2% | anti-sauvagine-30 (peptide) | IC50 [6]: 0.3 nM
5 | 1.1% | 99% | 9.8% | 86% | astressin (peptide) | IC50 [8]: 90 nM
6 |  |  |  |  | ovine corticotropin-releasing factor (ligand) | IC50 [9]: 200 nM; IC50 [10]: 1 nM
7 | 1.4% | 97% | 19% | 14% | α-helical CRF^9-41 (peptide) | IC50 [11]: 1 nM

From patent US20040049009A1, “Methods for improving the antagonistic/agonistic properties of peptidic antagonists/agonists of the corticotropin-releasing factor receptor (crfr)” (priority 2000, published 2004)
